Target: T1, HA-Rlf (mouse, UniProt Q61193 1-778)
T1 sequence (looked up): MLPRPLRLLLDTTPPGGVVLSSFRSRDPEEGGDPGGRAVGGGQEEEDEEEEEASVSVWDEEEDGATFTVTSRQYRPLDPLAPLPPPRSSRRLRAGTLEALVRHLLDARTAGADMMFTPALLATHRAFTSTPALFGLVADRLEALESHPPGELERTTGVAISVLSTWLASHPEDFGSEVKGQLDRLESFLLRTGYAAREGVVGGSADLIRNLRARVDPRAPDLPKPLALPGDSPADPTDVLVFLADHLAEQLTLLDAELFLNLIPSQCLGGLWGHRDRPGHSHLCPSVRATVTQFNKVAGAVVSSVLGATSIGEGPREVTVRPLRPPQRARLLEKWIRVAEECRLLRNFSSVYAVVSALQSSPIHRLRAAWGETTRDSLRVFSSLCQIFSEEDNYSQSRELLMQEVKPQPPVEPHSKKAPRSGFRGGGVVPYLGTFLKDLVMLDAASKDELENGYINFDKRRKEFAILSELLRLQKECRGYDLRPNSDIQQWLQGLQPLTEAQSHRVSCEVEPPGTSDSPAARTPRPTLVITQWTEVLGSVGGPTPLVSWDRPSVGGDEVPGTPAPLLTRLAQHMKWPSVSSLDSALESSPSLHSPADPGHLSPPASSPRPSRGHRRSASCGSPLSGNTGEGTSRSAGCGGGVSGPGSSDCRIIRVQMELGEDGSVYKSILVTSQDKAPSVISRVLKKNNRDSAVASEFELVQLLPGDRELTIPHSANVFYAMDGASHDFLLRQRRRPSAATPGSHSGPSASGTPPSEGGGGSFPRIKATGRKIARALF
Assay: co-IP

B1: Myc-Rab10 (QL) (natural protein, UniProt P61026 1-200, looked up)
chain: MAKKTYDLLFKLLLIGDSGVGKTCVLFRFSDDAFNTTFISTIGIDFKIKTVELQGKKIKLQIWDTAGLERFHTITTSYYRGAMGIMLVYDITNGKSFENISKWLRNIDEHANEDVERMLLGNKCDMDDKRVVPKGKGEQIAREHGIRFFETSAKANINIEKAFLTLAEDILRKTPVKEPNSENVDISSGGGVTGWKSKCC
fold binding against wild-type Rab10: 2 fold
